B1: Azoarcus group I ribozyme (parent)
chain: GUGCCUUGCGCCGGGAAACCACGCAAGGGAUGGUGUCAAAUUCGGCGAAACCUAAGCGCCCGCCCGGGCGUAUGGCAACGCCGAGCCAAGCUUCGGCGCCUGCGCCGAUGAAGGUGUAGAGACUAGACGGCACCCACCUAAGGCAAACGCUAUGGUGAAGGCAUAGUCCAGGGAGUGGCGAAAGUCACACAAACCGG

Variants of: B1
Assay: reverse-splicing fitness (ratio to wild type); higher = more active; in vitro selection; Mg2+ level not given
How it was run: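 An in vitro group I ribozyme library with randomized positions was T7-transcribed and gel-purified. In triplicate, 10 pmol RNA in EPPS pH 7.5 was reacted with 50 pmoles of a 30-nt RNA substrate for 1 h at 37 °C across several added MgCl2 levels (1–48 mM), then stopped with EDTA. Products were reverse transcribed from a substrate-complementary primer, PCR-amplified and sequenced (HiSeq 4000). Fitness is a variant's read proportion after selection over that before, normalised to wild type.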
Work on C82U A111C A120U A145U C150U U176A yielded a reverse-splicing fitness of 0.00562.
Variant C82U A111C A120U A145U C150U U176C has a reverse-splicing fitness of 0.0089.
In the case of C82U A111C A120U A145U C150U U176G, the reverse-splicing fitness is reported as 0.0027.
C82U A111C A120U A145U C169A showed a reverse-splicing fitness of 0.00238.
For C82U A111C A120U A145U C169A U176A, the reverse-splicing fitness was 0.00299.
Variant C82U A111C A120U A145U C169A U176C has a reverse-splicing fitness of 0.00251.
Variant C82U A111C A120U A145U C169A U176G has a reverse-splicing fitness of 0.00168.
C82U A111C A120U A145U C169G showed a reverse-splicing fitness of 0.00369.
Variant C82U A111C A120U A145U C169G U176A has a reverse-splicing fitness of 0.00259.
In the case of C82U A111C A120U A145U C169G U176C, the reverse-splicing fitness is reported as 0.00286.
Work on C82U A111C A120U A145U C169G U176G yielded a reverse-splicing fitness of 0.00187.
With C82U A111C A120U A145U C169U the reverse-splicing fitness was 0.00366.
For C82U A111C A120U A145U C169U U176A, the reverse-splicing fitness was 0.00256.
For C82U A111C A120U A145U C169U U176C, the reverse-splicing fitness was 0.00255.
C82U A111C A120U A145U C169U U176G gave a reverse-splicing fitness of 0.00166.
C82U A111C A120U A145U U176A showed a reverse-splicing fitness of 0.00693.
C82U A111C A120U A145U U176C showed a reverse-splicing fitness of 0.0113.
In the case of C82U A111C A120U A145U U176G, the reverse-splicing fitness is reported as 0.00361.
C82U A111C A120U C150A showed a reverse-splicing fitness of 0.0078.
Variant C82U A111C A120U C150A C169A has a reverse-splicing fitness of 0.00472.
For C82U A111C A120U C150A C169A U176A, the reverse-splicing fitness was 0.00438.
C82U A111C A120U C150A C169A U176C showed a reverse-splicing fitness of 0.00354.
In the case of C82U A111C A120U C150A C169A U176G, the reverse-splicing fitness is reported as 0.00303.
With C82U A111C A120U C150A C169G the reverse-splicing fitness was 0.00399.
For C82U A111C A120U C150A C169G U176A, the reverse-splicing fitness was 0.00492.
C82U A111C A120U C150A C169G U176C gave a reverse-splicing fitness of 0.00392.
For C82U A111C A120U C150A C169G U176G, the reverse-splicing fitness was 0.00237.
Variant C82U A111C A120U C150A C169U has a reverse-splicing fitness of 0.00491.
With C82U A111C A120U C150A C169U U176A the reverse-splicing fitness was 0.00699.
C82U A111C A120U C150A C169U U176C showed a reverse-splicing fitness of 0.0037.
C82U A111C A120U C150A C169U U176G gave a reverse-splicing fitness of 0.00241.
C82U A111C A120U C150A U176A showed a reverse-splicing fitness of 0.00441.
Work on C82U A111C A120U C150A U176C yielded a reverse-splicing fitness of 0.00573.
For C82U A111C A120U C150A U176G, the reverse-splicing fitness was 0.00295.
In the case of C82U A111C A120U C150G, the reverse-splicing fitness is reported as 0.00681.
C82U A111C A120U C150G C169A showed a reverse-splicing fitness of 0.00691.
C82U A111C A120U C150G C169A U176A showed a reverse-splicing fitness of 0.00624.
For C82U A111C A120U C150G C169A U176C, the reverse-splicing fitness was 0.00467.
With C82U A111C A120U C150G C169A U176G the reverse-splicing fitness was 0.00261.
C82U A111C A120U C150G C169G showed a reverse-splicing fitness of 0.00621.
In the case of C82U A111C A120U C150G C169G U176A, the reverse-splicing fitness is reported as 0.00425.
With C82U A111C A120U C150G C169G U176C the reverse-splicing fitness was 0.00317.
In the case of C82U A111C A120U C150G C169G U176G, the reverse-splicing fitness is reported as 0.00254.
Variant C82U A111C A120U C150G C169U has a reverse-splicing fitness of 0.00611.
Work on C82U A111C A120U C150G C169U U176A yielded a reverse-splicing fitness of 0.00421.
Work on C82U A111C A120U C150G C169U U176C yielded a reverse-splicing fitness of 0.00516.
Work on C82U A111C A120U C150G C169U U176G yielded a reverse-splicing fitness of 0.00265.
In the case of C82U A111C A120U C150G U176A, the reverse-splicing fitness is reported as 0.0035.
Work on C82U A111C A120U C150G U176C yielded a reverse-splicing fitness of 0.00605.
C82U A111C A120U C150G U176G showed a reverse-splicing fitness of 0.00291.
C82U A111C A120U C150U gave a reverse-splicing fitness of 0.0166.
With C82U A111C A120U C150U C169A the reverse-splicing fitness was 0.00496.
For C82U A111C A120U C150U C169A U176A, the reverse-splicing fitness was 0.00486.
For C82U A111C A120U C150U C169A U176C, the reverse-splicing fitness was 0.00372.
C82U A111C A120U C150U C169A U176G showed a reverse-splicing fitness of 0.00291.
In the case of C82U A111C A120U C150U C169G, the reverse-splicing fitness is reported as 0.00449.
In the case of C82U A111C A120U C150U C169G U176A, the reverse-splicing fitness is reported as 0.00387.
Work on C82U A111C A120U C150U C169G U176C yielded a reverse-splicing fitness of 0.00314.
Work on C82U A111C A120U C150U C169G U176G yielded a reverse-splicing fitness of 0.00228.
In the case of C82U A111C A120U C150U C169U, the reverse-splicing fitness is reported as 0.00505.
Variant C82U A111C A120U C150U C169U U176A has a reverse-splicing fitness of 0.00612.
Work on C82U A111C A120U C150U C169U U176C yielded a reverse-splicing fitness of 0.00387.
C82U A111C A120U C150U C169U U176G showed a reverse-splicing fitness of 0.00197.
C82U A111C A120U C150U U176A showed a reverse-splicing fitness of 0.00642.
C82U A111C A120U C150U U176C showed a reverse-splicing fitness of 0.00907.
C82U A111C A120U C150U U176G showed a reverse-splicing fitness of 0.00332.
Work on C82U A111C A120U C169A yielded a reverse-splicing fitness of 0.00322.
C82U A111C A120U C169A U176A showed a reverse-splicing fitness of 0.00309.
In the case of C82U A111C A120U C169A U176C, the reverse-splicing fitness is reported as 0.00352.
Variant C82U A111C A120U C169A U176G has a reverse-splicing fitness of 0.00185.
C82U A111C A120U C169G gave a reverse-splicing fitness of 0.00401.
In the case of C82U A111C A120U C169G U176A, the reverse-splicing fitness is reported as 0.0032.
C82U A111C A120U C169G U176C gave a reverse-splicing fitness of 0.0039.
In the case of C82U A111C A120U C169G U176G, the reverse-splicing fitness is reported as 0.00177.
In the case of C82U A111C A120U C169U, the reverse-splicing fitness is reported as 0.00529.
In the case of C82U A111C A120U C169U U176A, the reverse-splicing fitness is reported as 0.0057.
In the case of C82U A111C A120U C169U U176C, the reverse-splicing fitness is reported as 0.00419.
Work on C82U A111C A120U C169U U176G yielded a reverse-splicing fitness of 0.00178.
With C82U A111C A120U U176A the reverse-splicing fitness was 0.00719.
In the case of C82U A111C A120U U176C, the reverse-splicing fitness is reported as 0.0103.
In the case of C82U A111C A120U U176G, the reverse-splicing fitness is reported as 0.00301.
Variant C82U A111C A145C has a reverse-splicing fitness of 0.239.
With C82U A111C A145C C150A the reverse-splicing fitness was 0.0154.
In the case of C82U A111C A145C C150A C169A, the reverse-splicing fitness is reported as 0.00786.
